Earlier results in patent US20230303640A1, “EXENDIN-4 PEPTIDE ANALOGS” (TXP Pharma AG, priority 2020, published 2023).

Biological target: T1, human GLP-1 receptor (Homo sapiens, UniProt P43220)
T1 construct: expressed in transfected cells; host or cells: CHO-K1
Conditions: FIG. 3; data included and detailed in PCT/IB2015/000553 (WO/2015/162485)

T1 sequence (P43220 24-463): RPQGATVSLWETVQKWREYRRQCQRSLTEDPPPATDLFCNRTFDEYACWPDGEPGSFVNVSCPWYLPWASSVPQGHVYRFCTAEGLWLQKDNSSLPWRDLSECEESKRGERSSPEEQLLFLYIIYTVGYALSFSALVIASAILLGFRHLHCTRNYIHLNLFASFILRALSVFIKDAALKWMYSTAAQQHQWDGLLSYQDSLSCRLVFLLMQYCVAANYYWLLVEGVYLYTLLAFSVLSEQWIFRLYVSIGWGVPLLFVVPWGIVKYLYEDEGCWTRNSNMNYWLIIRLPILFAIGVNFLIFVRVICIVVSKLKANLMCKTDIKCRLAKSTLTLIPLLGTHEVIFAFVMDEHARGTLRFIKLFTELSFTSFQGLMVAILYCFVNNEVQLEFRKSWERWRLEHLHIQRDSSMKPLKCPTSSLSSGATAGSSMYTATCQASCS

EC50: 40 pM
Substance: Ac-His-Gly-Glu-Gly-Thr-Phe-Thr-Ser-Asp-Val-Ser-Ser-Tyr-Leu-Glu-Gly-Gln-Ala-Ala-Lys-Glu-Phe-Ile-Ala-Trp-Leu-Val-Lys-Gly-Arg-Gly-(Lys-Lys-Ac)Lys-NH2 (HGEGTFTSDVSSYLEGQAAKEFIAWLVKGRG; N-acetyl; C-terminal (Lys-Lys-Ac)Lys amide; printed: His-Gly-Glu-Gly-Thr-Phe-Thr-Ser-Asp-Val-Ser-Ser-Tyr-Leu-Glu-Gly-Gln-Ala-Ala-Lys-Glu-Phe-Ile-Ala-Trp-Leu-Val-Lys-Gly-Arg-Gly-) [Analogue 3, GLP-1 analogue with C-terminal BAP, from WO/2015/162485]
